The target in test [1] is T1, human ST2 (hST2, Interleukin-1 receptor-like 1 isoform A) on cells (human, UniProt Q01638 19-556).
T1 sequence: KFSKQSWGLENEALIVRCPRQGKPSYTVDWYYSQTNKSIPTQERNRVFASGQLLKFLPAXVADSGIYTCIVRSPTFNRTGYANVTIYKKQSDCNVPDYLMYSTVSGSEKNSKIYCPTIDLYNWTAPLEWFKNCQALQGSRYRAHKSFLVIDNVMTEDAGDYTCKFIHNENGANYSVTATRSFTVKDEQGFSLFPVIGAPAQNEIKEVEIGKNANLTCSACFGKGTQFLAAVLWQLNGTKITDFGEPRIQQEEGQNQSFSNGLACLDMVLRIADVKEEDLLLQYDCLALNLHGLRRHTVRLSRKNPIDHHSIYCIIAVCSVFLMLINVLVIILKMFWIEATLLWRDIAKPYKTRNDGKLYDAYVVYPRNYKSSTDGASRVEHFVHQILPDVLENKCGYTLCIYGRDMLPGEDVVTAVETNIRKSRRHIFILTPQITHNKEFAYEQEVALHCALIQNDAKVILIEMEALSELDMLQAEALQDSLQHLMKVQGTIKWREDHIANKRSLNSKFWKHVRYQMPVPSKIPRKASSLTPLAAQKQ
Briefly: cell-based or functional assay.

Test [2] deals with T2, recombinant protein containing hST2 extracellular domain with mouse antibody heavy chain Fc tag (hST2-ECD-mFc) (human).
T2 construct: Used for SPR and for ELISA of chimeric and humanized antibodies; also called human ST2 antigen
T2 chain: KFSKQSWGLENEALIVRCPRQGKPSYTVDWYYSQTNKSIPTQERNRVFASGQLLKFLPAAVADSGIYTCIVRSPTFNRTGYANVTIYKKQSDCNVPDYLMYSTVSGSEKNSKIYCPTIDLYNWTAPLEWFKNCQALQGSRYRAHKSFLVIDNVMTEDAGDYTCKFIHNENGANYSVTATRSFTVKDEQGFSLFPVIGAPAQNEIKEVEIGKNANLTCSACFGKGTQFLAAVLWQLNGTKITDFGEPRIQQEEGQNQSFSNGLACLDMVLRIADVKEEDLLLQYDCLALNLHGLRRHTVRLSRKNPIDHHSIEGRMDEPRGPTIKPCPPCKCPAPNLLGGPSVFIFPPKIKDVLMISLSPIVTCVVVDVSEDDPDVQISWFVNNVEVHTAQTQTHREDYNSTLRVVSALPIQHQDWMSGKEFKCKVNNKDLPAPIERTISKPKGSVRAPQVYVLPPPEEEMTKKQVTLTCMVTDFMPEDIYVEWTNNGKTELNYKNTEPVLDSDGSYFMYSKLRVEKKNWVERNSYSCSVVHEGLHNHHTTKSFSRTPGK
Kind of test: ELISA, plate coated with hST2-ECD-mFc, antibody heated at 72 °C for 5 min; antibody heated at 72° C. for 5 min (Heated column, not the unheated 0.1428 nM). How it is done: (§1) The anti-ST2 antibodies were diluted with PBS buffer to a concentration of 1.5 mg/mL. After being treated at 72° C. for 5 min, the samples were assayed by ELISA for their binding activity for an antigen The ELISA procedure is as follows: A 96-well plate was coated with 2 µg/mL hST2-ECD-mFc as the antigen at 100 µL/well and incubated at 4° C. overnight. After the antigen not adsorbed was well washed off, the non-specific binding sites were blocked with a blocking buffer (PBST containing 1% bovine serum albumin). After the plate was washed three times with a washing buffer (PBST, PBS containing 0.05% (v/v) Tween 20), the anti-ST2 antibodies (serially diluted 3-fold from an initial concentration of 1.5 µg/mL to 8 concentrations) were added at 100 µL/well, and the plate was incubated at 37° C. for 1 h. […] After the plate was incubated at room temperature for 5 min, a stop solution (2 N H₂SO₄) was added to stop the reactions. The signals were read at 450 nm using a plate reader (PE, Envision). The data were analyzed using GraphPad Prism5, and the EC₅₀ values were calculated.

Test [3] addresses T3, IL1R2/CD121b (Sino biological, 10111-H08H) (UniProt P27930 14-343).
T3 construct: Bought protein
T3 sequence (looked up): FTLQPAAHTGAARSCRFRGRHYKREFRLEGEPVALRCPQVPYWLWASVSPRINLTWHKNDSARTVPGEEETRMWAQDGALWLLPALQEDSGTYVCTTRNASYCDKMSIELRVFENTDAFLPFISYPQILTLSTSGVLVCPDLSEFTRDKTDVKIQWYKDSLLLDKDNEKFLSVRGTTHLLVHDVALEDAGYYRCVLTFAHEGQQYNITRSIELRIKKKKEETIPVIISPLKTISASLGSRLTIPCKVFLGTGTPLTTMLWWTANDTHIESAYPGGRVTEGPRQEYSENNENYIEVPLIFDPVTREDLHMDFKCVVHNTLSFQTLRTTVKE
Kind of test: ELISA, plate coated with 2 µg/mL receptor. The method, then:
as §1
ST2 belongs to the IL1R receptor family. The cross-reactivity of the anti-ST2 antibodies with the IL1R family receptors was determined by ELISA. The IL1R family receptors include IL1R⅟CD121a (Sino biological, 10126-H08H), IL1R2/CD121b (Sino biological, 10111-H08H), IL1R3/IL1RAP (Sino biological, 10121-H08H), IL1R7/IL-18RAcP (Sino biological, 10176-H08H), IL1R8/IL1RAPL1 (Sino biological, 10177-H08H), and IL1R9/IL1RAPL2 (Sino biological, 10156-H08H). ELISA assays were performed using the proteins described above as antigens (2 µg/mL). See Example 13 for the specific ELISA procedure. No binding means that the antibody remains unbound to the antigen when at the highest concentration.

B1: RG6149 (antibody Ab2 in CN104334582, prepared in-house) (antibody, human IgG2, kappa, V domains shown)
VH: EVQLVQSGAEVKKPGESLKISCKGSGYSFTNYWIGWVRQMPGKGLEWMGIIYPGNSDTRFSPSFQGQVTISADKSITTAYLQWSSLKASDTAMYYCARHGTSSDYYGLDVWGQGTTVTVSS
VL: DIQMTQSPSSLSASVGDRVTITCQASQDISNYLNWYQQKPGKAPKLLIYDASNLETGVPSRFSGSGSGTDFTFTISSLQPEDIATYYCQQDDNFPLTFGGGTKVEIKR
notes: Control anti-ST2 antibody
On to B1, for which the “IC50, blocking of the IL33/ST2 signaling (NFκB luciferase reporter, HEK293T-hST2-NFκB-Luciferase cells, 50 pM hIL33 protein SEQ ID NO: 8)” value in test [1] is 11.9 nM. The EC50 in test [2] came to 1.06 nM. In addition, in test [3], the binding result is reported as “no binding”.

B2: Humanized 31C8-1.1 (antibody, human IgG2, kappa, V domains shown)
VH: EVQLVQSGAEVKKPGATVKISCKASGYIFIDSEMHWVQQAPGKGLEWMGAIDPETGDTVYAEKFQGRVTITADKSSSTAYMELSSLRSEDTAVYYCTGSTTDYYFAYWGQGTLVTVSS
VL: DIQMTQSPSSLSASVGDRVTITCRSSKSLLHSNGIIYLYWYQQKPGKAPKLLIYQLSNLASGVPSRFSSSGSGTDFTLTISSLQPEDFATYYCAQNLELPFTFGQGTKVEIKR
notes: also called hz31C8-1.1; hz31C81-1.1
As to B2, the binding result in test [3] is given as “no binding”.

B3: Humanized 31C8-1.2 (antibody, human IgG2, kappa, V domains shown)
VH: QVQLVQSGAKVKKPGATVKISCKASGYIFIDSEMHWVQQAPGKGLEWMGAIDPETGDTVYAKKFKGRVTITADKSSSTAYMELSSLRSEDTAVYYCTGSTTDYYFAYWGQGTLVTVSS
VL: DIQMTQSPSSLSASVGDRVTITCRSSKSLLHSNGIIYLYWYQQKPGKAPKLLIYQLSNLASGVPSRFSSSGSGTDFTLTISSLQPEDFATYYCAQNLELPFTFGQGTKVEIKR
notes: also called hz31C8-1.2; hz31C81-1.2
Regarding B3, the binding result in test [3] was “no binding”.

B4: Chimeric 31C8 (antibody, human IgG2, kappa, V domains shown)
VH: QVQLQQSGPELVRPGASVTLSCKASGYIFIDSEMHWVKQTPVHGLEWIGAIDPETGDTVYNQKFKGKATLTADKSSSTASMELSSLTSEDSAVYYCTGSTTDYYFAYWGQGTTLTVSS
VL: DIVMTQAAFSNPVTLGTSASISCRSSKSLLHSNGIIYLYWYLQKPGQSPQLLIYQMSNLASGVPDRFSSSGSGTDFTLRISRVEAEDVGVYYCAQNLELPFTFGSGTKLEIKR
notes: also called xi31C8
With B4, the “IC50, blocking of the IL33/ST2 signaling (NFκB luciferase reporter, HEK293T-hST2-NFκB-Luciferase cells, 50 pM hIL33 protein SEQ ID NO: 8)” value in test [1] came to 2.53 nM. For the same molecule, in test [3], the binding result was “no binding”.

B5: Chimeric 3C6 (antibody, human IgG2, kappa, V domains shown)
VH: QVQLQQSGAEVVRPGASVTLSCKASDYTITDYEMHWVKQTPVHGLEWIGAIDPETGDTAYSQNFKGKATLTADESSSTAYMELSSLTSEDSAVYYCSRSATDYYFASWGQGTTLTVSS
VL: DIVMTQAAISNPVTLGTSASMSCRSSKSLLHSNGITYLYWYLQKPGHSPQLLIYQMSNLASGVPDRFSSSGSGTDFTLKISRVEAEDVGVYYCAQNLELPFTFGSGTKLEIKR
notes: also called xi3C6
Consider B5, for which the “IC50, blocking of the IL33/ST2 signaling (NFκB luciferase reporter, HEK293T-hST2-NFκB-Luciferase cells, 50 pM hIL33 protein SEQ ID NO: 8)” value in test [1] came out at 0.673 nM.

B6: Chimeric 26A1 (antibody, human IgG2, kappa, V domains shown)
VH: QVQLQQSGAELVRPGASVTLSCKASDYIFTDSEIHWVKQTLVHGLEWIGAIDPETGDTAYNQKFKGKATLTADKSSSTAYMELSSLTSEGSAVYYCSGSTTDCYFAYWGQGTTLTVSS
VL: DIVMTQAAFSNPVTLGTSASISCRSSKSLLHSNGIIYLYWYLQKPGQSPQLLIYQMSNLASGVPDRFSSSGSGTDFTLRISRVEAEDVGVYYCAQNLELPFTFGSGTKLEIKR
notes: also called xi26A1
In the case of B6, in test [1], the “IC50, blocking of the IL33/ST2 signaling (NFκB luciferase reporter, HEK293T-hST2-NFκB-Luciferase cells, 50 pM hIL33 protein SEQ ID NO: 8)” value came out at 7.57 nM.

B7: Chimeric 7D1 (antibody, human IgG2, kappa, V domains shown)
VH: QVQLQQSGAELVRPGASVTLSCKASGYTFTDYEMHWVKQTPVHGLDWIGTIDPETGDTAYNQKFKGRATLTADKSSSTAYMELSSLTSEDSAVYYCTRYSYTNSPYGMDYWGQGTSVTVSS
VL: DVVMTQTPKFLLVSAGDRVTITCKASQSVSNDVAWYQQKPGQSPKLLIYYASNRYTGVPDRFTGSGYGTDFTFTINTVQAEDLAVYFCQQDYSSPYTFGGGTKLEIKR
notes: also called xi7D1
Consider B7, for which the “IC50, blocking of the IL33/ST2 signaling (NFκB luciferase reporter, HEK293T-hST2-NFκB-Luciferase cells, 50 pM hIL33 protein SEQ ID NO: 8)” value in test [1] turned out to be 0.12 nM.

The values are drawn from US20230272086A1 (CHIA TAI TIANQING PHARMACEUTICAL GROUP, published 2023).
